Test [1] has as its target HLA-DR DRB1*0101 (human). The experiment in a line: competition with 125I-labelled peptide for purified HLA-DR.
In test [2] the target is HLA-DR DRB1*0301 (human). The test is described as above.
In test [3] the target is HLA-DR DRB1*0401 (human). The description is as above.
For test [4], the target named is HLA-DR DRB1*0404 (human). The description is as above.
In test [5] the target is HLA-DR DRB1*0405 (human). The description is as above.
For test [6], the target named is HLA-DR DRB1*0701 (human). Described as above.
For test [7], the target named is HLA-DR DRB1*0802 (human). The description is as above.
The target in test [8] is HLA-DR DRB1*0901 (human). The description is as above.
The target of test [9] is HLA-DR DRB1*1101 (human). The test is described as above.
Test [10] has as its target HLA-DR DRB1*1302 (human). Described as above.
In test [11] the target is HLA-DR DRB1*1501 (human). Described as above.
Test [12] concerns the target HLA-DR DRB4*0101 (human). The description is as above.
Test [13] deals with HLA-DR DRB5*0101 (human). The test is described as above.
Test [14] addresses HLA-DR DRB1*0101 (human). The experiment in a line: competition with 125I-labeled reference peptide, purified HLA.
Test [15] concerns the target HLA-DR DRB1*0301 (human). Described as above.
Test [16] deals with HLA-DR DRB1*0401 (human). The test is described as above.
Test [17] has as its target HLA-DR DRB1*0404 (human). The test is described as above.
Test [18] has as its target HLA-DR DRB1*0405 (human). Described as above.
Test [19] concerns the target HLA-DR DRB1*0701 (human). The test is described as above.
Test [20] addresses HLA-DR DRB1*0802 (human). Described as above.
Test [21] addresses HLA-DR DRB1*1101 (human). The test is described as above.
For test [22], the target named is HLA-DR DRB1*1302 (human). Described as above.
Test [23] concerns the target HLA-DR DRB1*1501 (human). Described as above.
The target in test [24] is HLA-DR DRB4*0101 (human). Described as above.
The target of test [25] is HLA-DR DRB5*0101 (human). The description is as above.
Test [26] concerns the target HLA-DR DRB1*0101 (human). The experiment in a line: competition with 125I-labelled peptide, purified HLA.
Test [27] concerns the target HLA-DR DRB1*0301 (human). The description is as above.
The target in test [28] is HLA-DR DRB1*0401 (human). The test is described as above.
The target of test [29] is HLA-DR DRB1*0404 (human). Described as above.
For test [30], the target named is HLA-DR DRB1*0405 (human). The test is described as above.
Test [31] has as its target HLA-DR DRB1*0701 (human). Described as above.
The target in test [32] is HLA-DR DRB1*0802 (human). The description is as above.
The target of test [33] is HLA-DR DRB1*0901 (human). The description is as above.
The target of test [34] is HLA-DR DRB1*1101 (human). The test is described as above.
The target in test [35] is HLA-DR DRB1*1302 (human). Described as above.
Test [36] deals with HLA-DR DRB1*1501 (human). The test is described as above.
The target in test [37] is HLA-DR DRB4*0101 (human). Described as above.
Test [38] has as its target HLA-DR DRB5*0101 (human). The test is described as above.
Test [39] concerns the target purified HLA DRB1*0101 (human). The experiment in a line: competition with 125I-labelled reference peptide, purified HLA.
Test [40] deals with purified HLA DRB1*0301 (human). Described as above.
Test [41] has as its target purified HLA DRB1*0401 (human). The test is described as above.
For test [42], the target named is purified HLA DRB1*0404 (human). Described as above.
Test [43] deals with purified HLA DRB1*0405 (human). The test is described as above.
Test [44] has as its target purified HLA DRB1*0701 (human). Described as above.
The target of test [45] is purified HLA DRB1*1101 (human). The test is described as above.
The target of test [46] is purified HLA DRB1*1302 (human). The description is as above.
The target of test [47] is purified HLA DRB1*1501 (human). The description is as above.
Test [48] has as its target purified HLA DRB4*0101 (human). Described as above.
For test [49], the target named is purified HLA DRB5*0101 (human). The description is as above.
For test [50], the target named is purified HLA DRB1*0101 (human). The experiment in a line: competition with 125I-labelled peptide for purified HLA.
The target in test [51] is purified HLA DRB1*0301 (human). Described as above.
Test [52] concerns the target purified HLA DRB1*0401 (human). Described as above.
The target in test [53] is purified HLA DRB1*0404 (human). The description is as above.
In test [54] the target is purified HLA DRB1*0405 (human). The test is described as above.
The target in test [55] is purified HLA DRB1*0701 (human). Described as above.
For test [56], the target named is purified HLA DRB1*1101 (human). The description is as above.
Test [57] concerns the target purified HLA DRB1*1302 (human). Described as above.
Test [58] concerns the target purified HLA DRB1*1501 (human). Described as above.
For test [59], the target named is HLA-DR DRB1*0101 (human). The experiment in a line: competition with 125I-labelled reference peptide on purified HLA-DR.
Test [60] deals with HLA-DR DRB1*0301 (human). The description is as above.
The target of test [61] is HLA-DR DRB1*0401 (human). Described as above.
Test [62] addresses HLA-DR DRB1*0404 (human). The description is as above.
Test [63] deals with HLA-DR DRB1*0405 (human). Described as above.
In test [64] the target is HLA-DR DRB1*0701 (human). The test is described as above.
The target of test [65] is HLA-DR DRB1*1101 (human). The test is described as above.
The target in test [66] is HLA-DR DRB1*1302 (human). The test is described as above.
In test [67] the target is HLA-DR DRB1*1501 (human). The test is described as above.

Broadly, the IC50 is the concentration that gives 50% inhibition. Low values mean greater potency in that assay, high ones weaker potency in that assay. As to RREVHIYYLEKANKI (modifications not checked) [Flu.PA.127], the half-inhibitory concentration (IC50) with HLA-DR DRB1*0101 (human) [1] was 34 nM; with HLA-DR DRB1*0301 (human) [2] it was greater than 10000 nM; with HLA-DR DRB1*0401 (human) [3], 63 nM; with HLA-DR DRB1*0404 (human) [4], 181 nM; with HLA-DR DRB1*0405 (human) [5], 1490 nM; in the test with HLA-DR DRB1*0701 (human) [6], 23 nM. Besides, the IC50 stood at 95 nM with HLA-DR DRB1*0802 (human) [7]; 851 nM with HLA-DR DRB1*0901 (human) [8]; 96 nM with HLA-DR DRB1*1101 (human) [9]; 150 nM with HLA-DR DRB1*1302 (human) [10]; 4.5 nM in the test with HLA-DR DRB1*1501 (human) [11]; 5 nM in the test with HLA-DR DRB4*0101 (human) [12]. The 50% inhibitory concentration (IC50) is 25 nM with HLA-DR DRB5*0101 (human) [13]; 34 nM with HLA-DR DRB1*0101 (human) [14]; greater than 10000 nM with HLA-DR DRB1*0301 (human) [15]; 63 nM in the test with HLA-DR DRB1*0401 (human) [16]; 181 nM with HLA-DR DRB1*0404 (human) [17]; 1490 nM in the test with HLA-DR DRB1*0405 (human) [18]. Moreover, the IC50 amounted to 23 nM with HLA-DR DRB1*0701 (human) [19]; 95 nM with HLA-DR DRB1*0802 (human) [20]; 96 nM in the test with HLA-DR DRB1*1101 (human) [21]; 150 nM in the test with HLA-DR DRB1*1302 (human) [22]; 4.5 nM with HLA-DR DRB1*1501 (human) [23]; 5 nM with HLA-DR DRB4*0101 (human) [24]. In the test with HLA-DR DRB5*0101 (human) [25], this molecule had a concentration for half-maximal inhibition (IC50) of 25 nM.
As to SLMLQIGNMISIWVSHS (modifications not checked) [Flu.NA.21], the IC50 with HLA-DR DRB1*0101 (human) [26] was determined as 8 nM; in the test with HLA-DR DRB1*0301 (human) [27], 441 nM; with HLA-DR DRB1*0401 (human) [28] it was 5 nM; with HLA-DR DRB1*0404 (human) [29], 3 nM; with HLA-DR DRB1*0405 (human) [30], 66 nM; with HLA-DR DRB1*0701 (human) [31], 13 nM. The 50% inhibitory concentration (IC50) was 89 nM in the test with HLA-DR DRB1*0802 (human) [32]; 86 nM in the test with HLA-DR DRB1*0901 (human) [33]; 83 nM with HLA-DR DRB1*1101 (human) [34]; 10 nM with HLA-DR DRB1*1302 (human) [35]; 8 nM in the test with HLA-DR DRB1*1501 (human) [36]; 8 nM in the test with HLA-DR DRB4*0101 (human) [37]. Besides, the IC50 with HLA-DR DRB5*0101 (human) [38] amounted to 24 nM.
AKSMEYDAVATTHSW (modifications not checked) [Flu.PB1.655]: the half-maximal inhibitory concentration (IC50) in test [39] is 202 nM; in [40], 909 nM; in [41], 53 nM; in test [42], 646 nM; in [43], 626 nM; in [44], 292 nM. Also, the IC50 was determined as 6620 nM in test [45]; 2180 nM in [46]; 1990 nM in test [47]; 6340 nM in test [48]; 3530 nM in test [49].
For YIQMCTELKLSDYEG (modifications not checked) [Flu.NP.43 peptide …], the half-inhibitory concentration (IC50) in test [50] worked out at 320 nM; in test [51] it was 368 nM; in [52], 392 nM; in test [53], 1640 nM; in test [54] it was 2690 nM; in test [55], 5370 nM. For the same molecule, the concentration for half-maximal inhibition (IC50) in test [56] came out at 5840 nM; in test [57] it was 15400 nM; in [58], 594 nM; with HLA-DR DRB1*0101 (human) [59] it was 320 nM; with HLA-DR DRB1*0301 (human) [60], 368 nM; in the test with HLA-DR DRB1*0401 (human) [61] it was 392 nM. The IC50 with HLA-DR DRB1*0404 (human) [62] came to 1640 nM; in the test with HLA-DR DRB1*0405 (human) [63], 2690 nM; with HLA-DR DRB1*0701 (human) [64], 5370 nM; in the test with HLA-DR DRB1*1101 (human) [65] it was 5840 nM; with HLA-DR DRB1*1302 (human) [66], 15400 nM; in the test with HLA-DR DRB1*1501 (human) [67], 594 nM.

Source of the values: patent US20080032921A1.
